This is an account of results in publication PMC10247859, “Replisome-cohesin interactions provided by the Tof1-Csm3 and Mrc1 cohesion establishment factors” (Chromosoma, 2023).

Holding throughout (conditions): both partners purified
The target of one experiment is T1, Chl1 (S. cerevisiae (budding yeast), UniProt P22516 1-861).
T1 construct: Chl1, budding yeast; codon-optimized ectopic copy; also called Flag-tagged Chl1; Chl1 helicase
T1 sequence (looked up): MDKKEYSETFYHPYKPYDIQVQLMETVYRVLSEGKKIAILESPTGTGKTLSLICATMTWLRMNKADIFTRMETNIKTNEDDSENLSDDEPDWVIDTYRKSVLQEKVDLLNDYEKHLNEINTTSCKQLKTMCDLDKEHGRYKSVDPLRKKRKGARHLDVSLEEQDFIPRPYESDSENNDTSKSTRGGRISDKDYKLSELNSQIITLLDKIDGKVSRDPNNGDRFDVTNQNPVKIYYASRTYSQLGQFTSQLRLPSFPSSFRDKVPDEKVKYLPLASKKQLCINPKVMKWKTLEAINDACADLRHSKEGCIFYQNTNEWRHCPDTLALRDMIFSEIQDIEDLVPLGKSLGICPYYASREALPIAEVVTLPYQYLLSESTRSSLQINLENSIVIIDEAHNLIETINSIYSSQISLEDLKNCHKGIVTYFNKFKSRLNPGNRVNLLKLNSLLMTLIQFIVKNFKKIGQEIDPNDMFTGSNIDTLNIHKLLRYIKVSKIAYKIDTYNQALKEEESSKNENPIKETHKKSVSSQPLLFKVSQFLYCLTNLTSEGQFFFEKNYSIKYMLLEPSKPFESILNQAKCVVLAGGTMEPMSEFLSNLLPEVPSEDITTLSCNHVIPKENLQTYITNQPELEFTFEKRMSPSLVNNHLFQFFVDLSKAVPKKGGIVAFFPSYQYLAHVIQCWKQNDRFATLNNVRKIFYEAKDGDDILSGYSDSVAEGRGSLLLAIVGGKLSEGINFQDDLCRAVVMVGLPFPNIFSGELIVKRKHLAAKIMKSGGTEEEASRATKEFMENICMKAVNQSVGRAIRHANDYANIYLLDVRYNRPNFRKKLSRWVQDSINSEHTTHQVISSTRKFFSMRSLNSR
Briefly: cross-linking; CLMS with sulfo-SDA; cohesin, Tof1-Csm3 and Chl1 with or without Mrc1 at 300-350 nM, 30 °C 5 min, cross-linker 2 h at 4 °C, UV 365 nm; LC-MS/MS, 1% FDR at residue-pair level; two samples merged.

Another experiment addresses T2, Tof1 (S. cerevisiae (budding yeast), UniProt P53840 1-1238).
T2 construct: Tof1, budding yeast; the Tof1 chain of m2; Stood in the cross-linking sample as a chain of the Tof1-Csm3 complex; source: purified as part of Tof1-Csm3, as previously described (Yeeles et al. 2017)
T2 sequence (looked up): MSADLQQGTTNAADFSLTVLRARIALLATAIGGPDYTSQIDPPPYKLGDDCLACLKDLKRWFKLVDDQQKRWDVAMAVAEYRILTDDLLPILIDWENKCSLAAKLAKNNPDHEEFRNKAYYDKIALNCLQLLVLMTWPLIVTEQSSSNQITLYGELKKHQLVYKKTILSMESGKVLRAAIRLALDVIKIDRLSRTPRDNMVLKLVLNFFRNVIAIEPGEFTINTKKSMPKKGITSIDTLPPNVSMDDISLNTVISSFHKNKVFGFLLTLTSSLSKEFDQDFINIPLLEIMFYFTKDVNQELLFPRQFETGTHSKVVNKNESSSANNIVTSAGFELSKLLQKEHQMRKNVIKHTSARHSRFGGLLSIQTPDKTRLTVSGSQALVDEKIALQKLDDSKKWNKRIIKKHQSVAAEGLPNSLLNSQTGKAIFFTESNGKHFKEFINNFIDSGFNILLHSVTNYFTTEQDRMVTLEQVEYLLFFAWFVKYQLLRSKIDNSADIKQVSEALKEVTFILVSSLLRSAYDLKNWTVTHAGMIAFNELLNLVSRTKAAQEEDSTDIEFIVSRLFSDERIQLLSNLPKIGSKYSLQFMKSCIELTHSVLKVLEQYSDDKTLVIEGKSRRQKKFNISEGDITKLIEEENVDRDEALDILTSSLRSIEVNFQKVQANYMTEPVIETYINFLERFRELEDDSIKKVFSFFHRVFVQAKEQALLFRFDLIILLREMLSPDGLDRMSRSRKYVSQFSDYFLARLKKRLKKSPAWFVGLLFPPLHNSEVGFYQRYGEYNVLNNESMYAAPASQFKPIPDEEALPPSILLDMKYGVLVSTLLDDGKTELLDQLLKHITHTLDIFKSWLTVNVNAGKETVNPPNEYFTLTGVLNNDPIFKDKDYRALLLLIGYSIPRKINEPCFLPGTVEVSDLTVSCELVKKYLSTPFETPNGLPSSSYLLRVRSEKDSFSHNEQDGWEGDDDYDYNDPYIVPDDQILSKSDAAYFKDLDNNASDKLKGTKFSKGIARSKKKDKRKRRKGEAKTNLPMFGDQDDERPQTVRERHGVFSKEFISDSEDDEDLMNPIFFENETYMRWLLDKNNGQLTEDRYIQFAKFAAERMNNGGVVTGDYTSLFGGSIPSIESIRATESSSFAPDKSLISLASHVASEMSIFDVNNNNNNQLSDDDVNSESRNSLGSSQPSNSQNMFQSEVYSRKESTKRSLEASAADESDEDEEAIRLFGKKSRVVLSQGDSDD
Described as above.

Experiment [1] deals with T3, cohesin trimer (Smc1-Smc3-Scc1) (S. cerevisiae (budding yeast), UniProt P32908 1-1225; P47037 1-1230; Q12158 1-566).
T3 construct: Smc1, cohesin subunit, budding yeast; Smc3, cohesin subunit, budding yeast; Scc1, cohesin subunit, budding yeast; source: purified following the same protocol as cohesin tetramers (IgG agarose, 3C protease cleavage); copies: + +
Kind of experiment: pull-down; Tof1-Csm3 (200-600 nM) held on calmodulin dynabeads; cohesin tetramer, trimer or Smc1-Smc3 dimer as prey; interaction buffer with 100 mM potassium glutamate; Coomassie staining; benzonase or NaCl added where indicated.

Another experiment has as its target T4, Smc1-Smc3 dimer (S. cerevisiae (budding yeast), UniProt P32908 1-1225; P47037 1-1230).
T4 construct: Smc1, cohesin subunit, budding yeast; Smc3, cohesin subunit, budding yeast; also called SMC dimer; SMC dimers (Smc1-Smc3); source: purified following the same protocol as cohesin tetramers (IgG agarose, 3C protease cleavage); not shown: Protein A, C-terminal, cleaved
Described as above.

Experiment [2] has as its target T5, cohesin tetramer complex (Smc1-Smc3-Scc1-Scc3) (S. cerevisiae (budding yeast), UniProt P32908 1-1225; P47037 1-1230; Q12158 1-566; P40541 1-1150).
T5 construct: Smc1, cohesin subunit, budding yeast; Smc3, cohesin subunit, budding yeast; Scc1, cohesin subunit, budding yeast; Scc3, cohesin subunit, budding yeast; also called cohesin complex; source: purified as previously described (Minamino et al. 2018): IgG agarose, 3C protease cleavage; copies: + + +
Kind of experiment: pull-down; cohesin tetramer (200-600 nM) held on Protein A dynabeads by anti-Pk antibody (Pk tag on Smc1); 200 nM prey, 30 °C, 5 min; 25 mM HEPES-KOH pH 7.6, 100 mM potassium glutamate, 10 mM magnesium acetate, 0.12% NP-40; SDS elution, Coomassie staining.

T5 sequence (P32908 whole entry, chain 1 of 3): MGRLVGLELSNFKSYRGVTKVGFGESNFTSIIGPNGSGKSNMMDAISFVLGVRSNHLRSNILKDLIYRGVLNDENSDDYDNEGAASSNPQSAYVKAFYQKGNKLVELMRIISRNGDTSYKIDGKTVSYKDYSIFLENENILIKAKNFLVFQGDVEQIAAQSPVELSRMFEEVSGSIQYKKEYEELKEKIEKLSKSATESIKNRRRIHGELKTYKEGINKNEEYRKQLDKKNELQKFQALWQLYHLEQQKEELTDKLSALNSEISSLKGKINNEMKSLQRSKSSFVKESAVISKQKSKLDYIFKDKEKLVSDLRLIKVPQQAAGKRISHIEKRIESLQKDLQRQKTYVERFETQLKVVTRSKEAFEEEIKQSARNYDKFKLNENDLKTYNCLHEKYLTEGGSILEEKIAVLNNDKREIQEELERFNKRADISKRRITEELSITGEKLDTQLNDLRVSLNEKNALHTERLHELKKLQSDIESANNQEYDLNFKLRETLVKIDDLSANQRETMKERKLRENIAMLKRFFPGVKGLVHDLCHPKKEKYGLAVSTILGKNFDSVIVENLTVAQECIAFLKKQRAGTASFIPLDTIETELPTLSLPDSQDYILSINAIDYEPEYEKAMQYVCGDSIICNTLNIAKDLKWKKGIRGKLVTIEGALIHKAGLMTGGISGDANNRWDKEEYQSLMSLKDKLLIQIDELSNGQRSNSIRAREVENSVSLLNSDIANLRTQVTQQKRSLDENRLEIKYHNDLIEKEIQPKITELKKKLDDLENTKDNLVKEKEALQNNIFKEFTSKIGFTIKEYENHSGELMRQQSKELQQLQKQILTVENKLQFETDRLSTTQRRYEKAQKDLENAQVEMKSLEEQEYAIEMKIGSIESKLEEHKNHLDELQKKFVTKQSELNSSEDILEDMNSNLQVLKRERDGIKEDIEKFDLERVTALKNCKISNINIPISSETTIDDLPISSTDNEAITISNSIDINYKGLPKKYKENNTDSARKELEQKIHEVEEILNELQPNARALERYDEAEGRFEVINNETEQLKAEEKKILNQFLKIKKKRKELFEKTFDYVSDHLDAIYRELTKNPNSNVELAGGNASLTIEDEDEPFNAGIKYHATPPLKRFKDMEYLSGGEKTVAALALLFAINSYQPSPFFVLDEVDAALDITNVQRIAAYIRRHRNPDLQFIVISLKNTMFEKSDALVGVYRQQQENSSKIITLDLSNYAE
T5 sequence (P47037 whole entry, chain 2 of 3): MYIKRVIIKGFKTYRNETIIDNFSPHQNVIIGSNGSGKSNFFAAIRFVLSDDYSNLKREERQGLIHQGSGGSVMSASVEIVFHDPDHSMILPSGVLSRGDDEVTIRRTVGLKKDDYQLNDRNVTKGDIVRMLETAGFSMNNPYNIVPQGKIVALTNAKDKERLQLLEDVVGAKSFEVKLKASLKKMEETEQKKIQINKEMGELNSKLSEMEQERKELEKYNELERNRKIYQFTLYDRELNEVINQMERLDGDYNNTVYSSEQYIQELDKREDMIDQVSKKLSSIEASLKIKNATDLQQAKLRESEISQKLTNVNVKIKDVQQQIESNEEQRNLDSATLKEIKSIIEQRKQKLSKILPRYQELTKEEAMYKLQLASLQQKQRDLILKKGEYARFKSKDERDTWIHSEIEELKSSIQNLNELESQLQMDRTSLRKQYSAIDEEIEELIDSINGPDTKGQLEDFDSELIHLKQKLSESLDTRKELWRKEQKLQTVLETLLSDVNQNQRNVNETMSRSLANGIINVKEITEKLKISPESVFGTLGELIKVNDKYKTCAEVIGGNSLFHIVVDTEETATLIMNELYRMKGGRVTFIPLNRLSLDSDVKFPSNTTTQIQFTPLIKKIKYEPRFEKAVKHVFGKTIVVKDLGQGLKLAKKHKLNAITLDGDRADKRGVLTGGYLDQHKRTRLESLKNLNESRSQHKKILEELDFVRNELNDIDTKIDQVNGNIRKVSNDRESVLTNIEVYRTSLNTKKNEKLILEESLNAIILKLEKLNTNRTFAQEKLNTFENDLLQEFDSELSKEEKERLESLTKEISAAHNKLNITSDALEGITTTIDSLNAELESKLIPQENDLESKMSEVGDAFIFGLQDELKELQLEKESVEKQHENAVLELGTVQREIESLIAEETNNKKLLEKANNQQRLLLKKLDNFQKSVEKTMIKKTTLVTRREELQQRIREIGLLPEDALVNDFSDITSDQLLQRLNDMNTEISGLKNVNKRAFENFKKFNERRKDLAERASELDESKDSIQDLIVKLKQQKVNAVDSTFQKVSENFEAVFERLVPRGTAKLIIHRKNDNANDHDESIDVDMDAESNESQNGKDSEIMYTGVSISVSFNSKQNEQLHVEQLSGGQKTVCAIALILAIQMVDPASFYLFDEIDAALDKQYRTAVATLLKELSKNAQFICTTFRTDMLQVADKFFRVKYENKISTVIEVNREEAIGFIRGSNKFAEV
T5 sequence (P40541 whole entry, chain 4 of 3): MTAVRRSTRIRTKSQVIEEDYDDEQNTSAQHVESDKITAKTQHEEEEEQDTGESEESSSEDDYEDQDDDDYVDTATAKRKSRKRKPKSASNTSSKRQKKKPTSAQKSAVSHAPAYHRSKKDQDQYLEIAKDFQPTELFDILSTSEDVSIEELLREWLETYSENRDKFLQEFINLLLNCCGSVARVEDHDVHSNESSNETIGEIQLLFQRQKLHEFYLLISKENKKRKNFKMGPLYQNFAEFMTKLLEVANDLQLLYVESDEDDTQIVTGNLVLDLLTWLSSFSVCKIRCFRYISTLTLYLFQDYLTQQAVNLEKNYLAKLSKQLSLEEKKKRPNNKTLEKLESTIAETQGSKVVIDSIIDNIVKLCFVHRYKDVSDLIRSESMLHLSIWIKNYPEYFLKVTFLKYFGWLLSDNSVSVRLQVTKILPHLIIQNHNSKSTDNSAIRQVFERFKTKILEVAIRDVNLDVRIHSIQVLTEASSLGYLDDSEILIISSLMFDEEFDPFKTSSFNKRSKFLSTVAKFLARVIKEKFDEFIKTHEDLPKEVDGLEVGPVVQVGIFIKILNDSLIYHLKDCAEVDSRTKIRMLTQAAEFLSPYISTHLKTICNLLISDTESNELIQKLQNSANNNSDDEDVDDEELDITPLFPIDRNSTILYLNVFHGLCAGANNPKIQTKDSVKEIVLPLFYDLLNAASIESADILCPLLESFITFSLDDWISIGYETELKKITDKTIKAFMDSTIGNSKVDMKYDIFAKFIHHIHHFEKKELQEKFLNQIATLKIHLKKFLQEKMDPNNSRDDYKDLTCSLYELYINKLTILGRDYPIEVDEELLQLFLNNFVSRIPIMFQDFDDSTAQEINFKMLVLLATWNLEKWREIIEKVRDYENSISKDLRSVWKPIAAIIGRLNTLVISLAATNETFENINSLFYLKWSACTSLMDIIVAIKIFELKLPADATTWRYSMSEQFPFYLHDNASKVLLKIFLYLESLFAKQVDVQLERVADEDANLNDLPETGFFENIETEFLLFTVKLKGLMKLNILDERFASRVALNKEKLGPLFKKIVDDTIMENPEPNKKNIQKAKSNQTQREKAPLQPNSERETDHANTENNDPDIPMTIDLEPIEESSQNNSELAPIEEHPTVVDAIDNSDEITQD
T4 sequence (P32908 whole entry, chain 1 of 2): as the sequence (P32908 whole entry, chain 1 of 3) above
T4 sequence (P47037 whole entry, chain 2 of 2): as the sequence (P47037 whole entry, chain 2 of 3) above
T3 sequence (P32908 whole entry, chain 1 of 2): as the sequence (P32908 whole entry, chain 1 of 3) above
T3 sequence (P47037 whole entry, chain 2 of 2): as the sequence (P47037 whole entry, chain 2 of 3) above

B1: Scc1 (natural protein, S. cerevisiae (budding yeast), UniProt Q12158 1-566, looked up)
chain: MVTENPQRLTVLRLATNKGPLAQIWLASNMSNIPRGSVIQTHIAESAKEIAKASGCDDESGDNEYITLRTSGELLQGIVRVYSKQATFLLTDIKDTLTKISMLFKTSQKMTSTVNRLNTVTRVHQLMLEDAVTEREVLVTPGLEFLDDTTIPVGLMAQENSMERKVQGAAPWDTSLEVGRRFSPDEDFEHNNLSSMNLDFDIEEGPITSKSWEEGTRQSSRNFDTHENYIQDDDFPLDDAGTIGWDLGITEKNDQNNDDDDNSVEQGRRLGESIMSEEPTDFGFDLDIEKEAPAGNIDTITDAMTESQPKQTGTRRNSKLLNTKSIQIDEETENSESIASSNTYKEERSNNLLTPQPTNFTTKRLWSEITESMSYLPDPILKNFLSYESLKKRKIHNGREGSIEEPELNVSLNLTDDVISNAGTNDNSFNELTDNMSDFVPIDAGLNEAPFPEENIIDAKTRNEQTTIQTEKVRPTPGEVASKAIVQMAKILRKELSEEKEVIFTDVLKSQANTEPENITKREASRGFFDILSLATEGCIGLSQTEAFGNIKIDAKPALFERFINA
notes: Scc1, budding yeast; the Scc1 chain of m1; Stood in the cross-linking sample as a chain of cohesin; source: purified as part of cohesin, as previously described (Minamino et al. 2018)
In the case of B1, the binding result in the experiment with Chl1 and in the experiment with Tof1 was “binds” each time.

B2: Tof1-Csm3 complex (complex, S. cerevisiae (budding yeast))
chain 1: MSADLQQGTTNAADFSLTVLRARIALLATAIGGPDYTSQIDPPPYKLGDDCLACLKDLKRWFKLVDDQQKRWDVAMAVAEYRILTDDLLPILIDWENKCSLAAKLAKNNPDHEEFRNKAYYDKIALNCLQLLVLMTWPLIVTEQSSSNQITLYGELKKHQLVYKKTILSMESGKVLRAAIRLALDVIKIDRLSRTPRDNMVLKLVLNFFRNVIAIEPGEFTINTKKSMPKKGITSIDTLPPNVSMDDISLNTVISSFHKNKVFGFLLTLTSSLSKEFDQDFINIPLLEIMFYFTKDVNQELLFPRQFETGTHSKVVNKNESSSANNIVTSAGFELSKLLQKEHQMRKNVIKHTSARHSRFGGLLSIQTPDKTRLTVSGSQALVDEKIALQKLDDSKKWNKRIIKKHQSVAAEGLPNSLLNSQTGKAIFFTESNGKHFKEFINNFIDSGFNILLHSVTNYFTTEQDRMVTLEQVEYLLFFAWFVKYQLLRSKIDNSADIKQVSEALKEVTFILVSSLLRSAYDLKNWTVTHAGMIAFNELLNLVSRTKAAQEEDSTDIEFIVSRLFSDERIQLLSNLPKIGSKYSLQFMKSCIELTHSVLKVLEQYSDDKTLVIEGKSRRQKKFNISEGDITKLIEEENVDRDEALDILTSSLRSIEVNFQKVQANYMTEPVIETYINFLERFRELEDDSIKKVFSFFHRVFVQAKEQALLFRFDLIILLREMLSPDGLDRMSRSRKYVSQFSDYFLARLKKRLKKSPAWFVGLLFPPLHNSEVGFYQRYGEYNVLNNESMYAAPASQFKPIPDEEALPPSILLDMKYGVLVSTLLDDGKTELLDQLLKHITHTLDIFKSWLTVNVNAGKETVNPPNEYFTLTGVLNNDPIFKDKDYRALLLLIGYSIPRKINEPCFLPGTVEVSDLTVSCELVKKYLSTPFETPNGLPSSSYLLRVRSEKDSFSHNEQDGWEGDDDYDYNDPYIVPDDQILSKSDAAYFKDLDNNASDKLKGTKFSKGIARSKKKDKRKRRKGEAKTNLPMFGDQDDERPQTVRERHGVFSKEFISDSEDDEDLMNPIFFENETYMRWLLDKNNGQLTEDRYIQFAKFAAERMNNGGVVTGDYTSLFGGSIPSIESIRATESSSFAPDKSLISLASHVASEMSIFDVNNNNNNQLSDDDVNSESRNSLGSSQPSNSQNMFQSEVYSRKESTKRSLEASAADESDEDEEAIRLFGKKSRVVLSQGDSDD
chain 2: MDQDFDSLLLGFNDSDSVQKDPTVPNGLDGSVVDPTIADPTAITARKRRPQVKLTAEKLLSDKGLPYVLKNAHKRIRISSKKNSYDNLSNIIQFYQLWAHELFPKAKFKDFMKICQTVGKTDPVLREYRVSLFRDEMGMSFDVGTRETGQDLERQSPMVEEHVTSAEERPIVADSFAQDKRNVNNVDYDNDEDDDIYHLSYRNRRGRVLDERGNNETVLNNVVPPKEDLDALLKTFRVQGPVGLEENEKKLLLGWLDAHRKMEKGSMTEEDVQLIQSLEEWEMNDIEGQHTHYDLLPGGDEFGVDQDELDAMKEMGF
notes: Tof1, budding yeast; Csm3, budding yeast; Held on calmodulin dynabeads when used as bait; source: purified as previously described (Yeeles et al. 2017)
As to B2, the binding result (in experiment [1]; with Smc1-Smc3 dimer; in experiment [2]) was “binds” throughout.
